Tests used:
[1] = Protein melting point by DSC; assay type: physicochemical
Method: Differential scanning calorimetry study of SP1 indicates in a Tm of 107° C. for SP1. […] Further, folding and refolding of inclusion bodies including insoluble SP1, and the heat stability of the unfolded proteins indicate that the intact monomer, as well as the oligomer, is heat resistant (FIG. 5).

[2] = Resistance of SP1 complex to organic solvents; assay type: physicochemical
Method: 150 ul of 1 mg/ml samples in 10 mM sodium phosphate pH 7 were lyophilized overnight and resuspended in 150 μl organic solvents for 10 minutes. Following a 30 minutes speed vac the samples were resuspended in 150 μl water and analyzed by SDS-PAGE.
In order to further test the stability of SP1 and SP1 oligomeric complexes, wild type SP1 and the SP1 variant Cys2 SP1 were dissolved in buffer, exposed to organic solvents methanol and hexane, and analyzed by SDS-PAGE (FIG. 18).
In order to determine the stability of the SP1 complex in organic solvents, SP1 and Cys2 SP1-variant (SEQ ID NO: 3) were dissolved in organic solvents, dried, reconstituted with aqueous solvent, and separated on SDS-PAGE.

[3] = tested on: Human colon adenocarcinoma (HT-29) cells; test: In-vitro cytotoxicity in HT-29 cells; assay type: cell-based; conditions: HT-29 cells, dose inhibiting 50% of cell growth
Excerpt: FIGS. 24a and 24b are graphs illustrating the in-vitro cytotoxic effects of SP1-DOX complex. FIG. 24a—HT-29 cells cultured in 96 well microtiter plates were exposed to uncomplexed DOX (closed oval, magenta) or SP1-DOX complex (closed triangle, blue) prepared as described in FIGS. 9-15, at the indicated concentrations. FIG. 24b—HT-29 cells were exposed to uncomplexed SP1 (without DOX) (closed diamond, blue) or SP1-DOX complex (closed triangle, yellow) at indicated concentrations. Proportion of living cells was determined by MTT assay, and the IC50 was calculated.
HT-29 cells were prepared as in FIG. 24 above.
Human colon adenocarcinoma (HT-29) cells. The cells were grown in 50-ml flasks containing DMEM medium (Biological Industries, Bet Haemek), supplemented with 10% fetal calf serum, 1% glutamine and 1% Antibiotic-Antimicotic solution (Biolab, Israel). The cells were trypsinizated, and 2 ml medium containing 5×10^4 cells were plated in each well of a 6-wells plate. SP1, drugs or SP1-complexed with drugs was added at the indicated concentrations. The cells were incubated at 37° C. in a humidified atmosphere containing 5% CO2.After 48 hours the medium in the presence or absence of drugs was replaced in each well respectively, to maintain a constant supply of ingredients and drugs. After four days the medium was removed and the number of viable cells in the cultures was determined by spectroscopy.
The human colorectal adenocarcinoma cell line, HT-29, was used to evaluate the biological activity of the SP1-DOX complex, compared to that of the free drug and un-complexed SP1 protein. […] Thus, the SP1-DOX complex is at least as biologically active as free DOX.

[4] = SP1 stability following exposure to SDS and heating; assay type: physicochemical
Method: The stability of the SP1 complex in the presence of SDS was examined by incubating purified SP1 with SDS at different molar ratios and at different temperatures. Dissociation of the SP1 complex to monomers required a molar ratio greater than 600:1 (SDS:SP1-monomer) accompanied by boiling before loading onto the gel.

[5] = Immunogenicity: anti SP1 antibody production by ELISA; assay type: in vivo, C57B1 mice; conditions: after repetitive injections
Excerpt: In order to determine the degree of immunogenicity of SP1, anti SP1 antibody production in both PBS- and SP1-treated animals was detected using ELISA, using either directly immobilized SP1 or rabbit anti SP1 antibodies (second antibody was HRP conjugated anti mouse IgG). Serum obtained from both PBS- and SP1-treated animals had negligible anti-SP1 antibody reaction, with no difference between the two groups.

For “wild type: stress related SP1 protein from aspen (Populus tremula), recombinant, SEQ ID NO:1”, the Tm ([1]; Differential scanning calorimetry) was 107 °C, the Tm ([1]; protein melting point by DSC, in °C (unit assumed)) was 107 and the “protease resistance after hexane treatment” value ([2]; hexane-treated, data not shown) was “resistance to protease treatment”. The “resistance of oligomeric complex to organic solvents” value ([2]; methanol, hexane, SDS-PAGE) was “Predominantly high molecular weight oligomer complex form”, the IC50 ([3]; listed as SP1) was “inactive” and the IC50 ([3]; listed as SP-1) was “absence of cytotoxicity”. The “disassociation of the complex” value ([4]; 1734-fold SDS (1%), temperatures of 80° C. or lower) was “did not cause significant disassociation of the complex”, the “molar ratio (SDS:SP1-monomer) required for dissociation of the complex to monomers” value ([4]; accompanied by boiling before loading onto the gel) was “greater than 600” and the “state of SP1 on SDS-PAGE” value ([4]; without boiling, SDS ratio of 3467 to 1) was “remained as a complex”. For the same substance, the “anti-SP1 antibody reaction in serum” value [5] was “negligible”.
